Laboratory results published in patent US20240247080A1, “GLP1/GIP/NPY2 RECEPTOR TRIPLE AGONISTS” (Boehringer Ingelheim International GmbH, priority 2022, published 2024).
Starred links: 1 amine or outer side, 2 acyl side, 3 side chain; linkers in the order of their positions; H or OH if unused. Non-standard residues stand in square brackets, D forms with d. Groups on a side chain read outwards from the residue. No end group written: not given here. *: point of attachment. C18 diacid = O=C(O)CCCCCCCCCCCCCCCCC(=O)*; γGlu = O=C(O)[C@H](CCC(=O)[*:2])N[*:1]; εLys = N[C@@H](CCCCN[*:1])C(=O)[*:2]; AEEA = NCCOCCOCC(=O)O; Aib = CC(C)(N)C(=O)O

T1: human neuropeptide Y2 receptor (human, UniProt P49146 1-381)
T1 sequence (looked up): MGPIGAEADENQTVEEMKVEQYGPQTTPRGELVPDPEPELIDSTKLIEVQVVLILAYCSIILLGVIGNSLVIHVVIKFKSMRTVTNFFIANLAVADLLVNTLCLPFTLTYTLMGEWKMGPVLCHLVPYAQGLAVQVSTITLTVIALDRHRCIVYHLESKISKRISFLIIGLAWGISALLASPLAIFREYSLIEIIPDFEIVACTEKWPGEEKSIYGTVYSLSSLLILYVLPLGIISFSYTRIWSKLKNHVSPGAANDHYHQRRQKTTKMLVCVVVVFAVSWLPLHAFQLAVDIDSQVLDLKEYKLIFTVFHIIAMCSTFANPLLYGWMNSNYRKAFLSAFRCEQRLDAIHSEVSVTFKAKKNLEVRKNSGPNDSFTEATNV

T2: human GIP receptor (human, UniProt P48546 22-466)
T2 sequence (looked up): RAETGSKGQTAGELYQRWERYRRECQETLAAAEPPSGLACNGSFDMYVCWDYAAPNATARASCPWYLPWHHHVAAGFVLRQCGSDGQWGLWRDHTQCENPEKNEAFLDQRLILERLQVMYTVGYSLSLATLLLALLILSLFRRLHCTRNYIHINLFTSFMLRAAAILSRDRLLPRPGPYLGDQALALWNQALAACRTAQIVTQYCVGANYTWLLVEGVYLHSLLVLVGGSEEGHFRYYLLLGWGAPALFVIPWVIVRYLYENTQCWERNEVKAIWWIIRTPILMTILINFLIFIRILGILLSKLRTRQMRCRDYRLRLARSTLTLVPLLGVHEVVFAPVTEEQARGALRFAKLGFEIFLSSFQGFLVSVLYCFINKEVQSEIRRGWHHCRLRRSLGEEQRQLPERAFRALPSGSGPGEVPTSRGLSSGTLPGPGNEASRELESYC

B1: Compound 148 (peptide)
peptide: Y[Aib]EGTFTSDYSI[Aib]LEKQAQ[Aib]AFVQWLIK([εLys-γGlu-γGlu-γGlu-γGlu-γGlu-C18 diacid])GGPSEPASLRHYYNWLTRQRY-NH2
B2: Compound 156 (peptide)
peptide: Y[Aib]EGTFTSDYSI[Aib]LEKQAE[Aib]AFVQWLIK([AEEA-AEEA-γGlu-γGlu-γGlu-γGlu-C18 diacid])GGPSEGASLRHYYNWLTRQRY-NH2
B3: Compound 159 (peptide)
peptide: Y[Aib]EGTFTSDYSI[Aib]LEKQAQ[Aib]EFVEWLIK([εLys-γGlu-γGlu-γGlu-γGlu-γGlu-C18 diacid])GGPSSGASLRHYYNWLTRQRY-NH2
B4: Compound 143 (peptide)
peptide: Y[Aib]EGTFTSDYSI[Aib]LEKQAQ[Aib]AFVQWLIK([εLys-γGlu-γGlu-γGlu-γGlu-γGlu-C18 diacid])GGPEEGASLRHYYNWLTRQRY-NH2
B5: Compound 147 (peptide)
peptide: Y[Aib]EGTFTSDYSI[Aib]LEKQAQ[Aib]AFVQWLIKGGPSSGASLRHYYNWLTRQRY-NH2
modifications: not fully specified (residue 28)
B6: Compound 161 (peptide)
peptide: Y[Aib]EGTFTSDYSI[Aib]LEKQAQ[Aib]AFVEWLIK([AEEA-AEEA-γGlu-γGlu-γGlu-γGlu-C18 diacid])GGPEEPASLRHYYNWLTRQRY-NH2
B7: Compound 155 (peptide)
peptide: Y[Aib]EGTFTSDYSI[Aib]LEKQAQ[Aib]AFVQWLIK([εLys-Glu-Glu-Glu-Glu-Glu-C18 diacid])GGPEEGASLRHYYNWLTRQRY-NH2
B8: Compound 151 (peptide)
peptide: Y[Aib]EGTFTSDYSI[Aib]LEKQAQ[Aib]EFVQWLIK([γGlu-γGlu-γGlu-γGlu-γGlu-γGlu-C18 diacid])GGPSEGASLRHYYNWLTRQRY-NH2
B9: Compound 160 (peptide)
peptide: Y[Aib]EGTFTSDYSI[Aib]LEKQAQ[Aib]EFVQWLIK([AEEA-AEEA-γGlu-γGlu-γGlu-C18 diacid])GGPSEGASLRHYYNWLTRQRY-NH2
B10: Compound 142 (peptide)
peptide: YXEGTFTSDYSIXLEKQAQXAFVQWLIKGGPSEPASLRHYYNWLTRQRY
modifications: Aib at 2, 13, 20; K28 side chain: C18DA-gGlu-gGlu-gGlu-gGlu-gGlu-OEG-OEG; C-terminal NH2

Each binder was assayed against human GLP-1 receptor (human, UniProt P43220 24-463) (assay: cell-based or functional assay).
B1 was tested, and the “EC50 CreLuc hGLP1R 0.5% hP” value was 0.08 nM and the “EC50 CreLuc hGLP1R 100% hP” value was 1.46 nM. For B2, the “EC50 CreLuc hGLP1R 0.5% hP” value was 0.18 nM and the “EC50 CreLuc hGLP1R 100% hP” value was 6.5 nM. B3 was tested, and the “EC50 CreLuc hGLP1R 0.5% hP” value was 0.19 nM and the “EC50 CreLuc hGLP1R 100% hP” value was 5.17 nM. With B4 the “EC50 CreLuc hGLP1R 0.5% hP” value was 0.13 nM and the “EC50 CreLuc hGLP1R 100% hP” value was 4.24 nM. For B5, the “EC50 CreLuc hGLP1R 0.5% hP” value was 0.08 nM and the “EC50 CreLuc hGLP1R 100% hP” value was 1.54 nM. With B6 the “EC50 CreLuc hGLP1R 0.5% hP” value was 0.21 nM and the “EC50 CreLuc hGLP1R 100% hP” value was 8.06 nM. With B7 the “EC50 CreLuc hGLP1R 0.5% hP” value was 0.15 nM and the “EC50 CreLuc hGLP1R 100% hP” value was 7.18 nM. In the case of B8, the “EC50 CreLuc hGLP1R 0.5% hP” value is reported as 0.26 nM and the “EC50 CreLuc hGLP1R 100% hP” value is reported as 4.39 nM. For B9, the “EC50 CreLuc hGLP1R 0.5% hP” value was 0.3 nM and the “EC50 CreLuc hGLP1R 100% hP” value was 6.31 nM. For B10, the “EC50 CreLuc hGLP1R 0.5% hP” value was 0.12 nM and the “EC50 CreLuc hGLP1R 100% hP” value was 3.34 nM.

What follows are binders tested against T1, human neuropeptide Y2 receptor (assay: cell-based or functional assay).
For B1, the “EC50 CreLuc hNPY2R 0.5% hP” value was 11 nM and the “EC50 CreLuc hNPY2R 100% hP” value was 21.1 nM. In the case of B2, the “EC50 CreLuc hNPY2R 0.5% hP” value is reported as 13.5 nM and the “EC50 CreLuc hNPY2R 100% hP” value is reported as 26.5 nM. With B3 the “EC50 CreLuc hNPY2R 0.5% hP” value was 13.8 nM and the “EC50 CreLuc hNPY2R 100% hP” value was 34.6 nM. B4 was tested, and the “EC50 CreLuc hNPY2R 0.5% hP” value was 13.1 nM and the “EC50 CreLuc hNPY2R 100% hP” value was 42.2 nM. With B5 the “EC50 CreLuc hNPY2R 0.5% hP” value was 23.3 nM and the “EC50 CreLuc hNPY2R 100% hP” value was 65.6 nM. For B6, the “EC50 CreLuc hNPY2R 0.5% hP” value was 11.5 nM and the “EC50 CreLuc hNPY2R 100% hP” value was 41.7 nM. In the case of B7, the “EC50 CreLuc hNPY2R 0.5% hP” value is reported as 17 nM and the “EC50 CreLuc hNPY2R 100% hP” value is reported as 95 nM. B8 was tested, and the “EC50 CreLuc hNPY2R 0.5% hP” value was 18.9 nM and the “EC50 CreLuc hNPY2R 100% hP” value was 42.3 nM. With B9 the “EC50 CreLuc hNPY2R 0.5% hP” value was 8.23 nM and the “EC50 CreLuc hNPY2R 100% hP” value was 21.9 nM. With B10 the “EC50 CreLuc hNPY2R 0.5% hP” value was 12.9 nM and the “EC50 CreLuc hNPY2R 100% hP” value was 28.2 nM.

What follows are binders tested against T2, human GIP receptor (assay: cell-based or functional assay).
With B1 the “EC50 CreLuc hGIPR 0.5% hP” value was 0.07 nM and the “EC50 CreLuc hGIPR 100% hP” value was 0.47 nM. B2 was tested, and the “EC50 CreLuc hGIPR 0.5% hP” value was 0.16 nM and the “EC50 CreLuc hGIPR 100% hP” value was 0.72 nM. For B3, the “EC50 CreLuc hGIPR 0.5% hP” value was 0.35 nM and the “EC50 CreLuc hGIPR 100% hP” value was 0.91 nM. B4 was tested, and the “EC50 CreLuc hGIPR 0.5% hP” value was 0.22 nM and the “EC50 CreLuc hGIPR 100% hP” value was 0.67 nM. For B5, the “EC50 CreLuc hGIPR 0.5% hP” value was 0.19 nM and the “EC50 CreLuc hGIPR 100% hP” value was 1.6 nM. With B6 the “EC50 CreLuc hGIPR 0.5% hP” value was 0.14 nM and the “EC50 CreLuc hGIPR 100% hP” value was 1.23 nM. B7 was tested, and the “EC50 CreLuc hGIPR 0.5% hP” value was 0.14 nM and the “EC50 CreLuc hGIPR 100% hP” value was 1.43 nM. With B8 the “EC50 CreLuc hGIPR 0.5% hP” value was 0.91 nM and the “EC50 CreLuc hGIPR 100% hP” value was 1.28 nM. With B9 the “EC50 CreLuc hGIPR 0.5% hP” value was 0.33 nM and the “EC50 CreLuc hGIPR 100% hP” value was 0.91 nM. B10 was tested, and the “EC50 CreLuc hGIPR 0.5% hP” value was 0.28 nM and the “EC50 CreLuc hGIPR 100% hP” value was 1.15 nM.
